Reference: patent US20220242919A1 (LIMMATECH BIOLOGICS, published 2022)

Biological target: T1, recombinant human VEGF-R1 (human, UniProt P17948 27-756, limits assumed)
T1 construct: Bought (Acro Biosystems), used as positive control analyte in SPR; also called rhVEGF-R1; VEGF receptor
Assay: SPR, Biacore T200, 25 C, VEGF165 immobilized, multi cycle kinetics
Experimental: Surface plasmon resonance spectroscopy. The kinetic parameters of the VEGF-binders were measured using a Biacore T200 instrument at 25° C. The bait ligand (recombinant human VEGF₁₆₅, Acro Biosystems) was covalently immobilized on a sensor chip Cl surface at three different densities. The prey analyte (different DARPins, or as a positive control, recombinant human VEGF-R1 (Acro Biosystems)) was analysed using multi cycle kinetics in 10 mM HEPES pH 7.4, 150 mM NaCl, 3 mM EDTA, 0.05% Tween 20 at a flow rate of 50 μl/min.
For determination of the kinetic parameters, the concentration of the probe was measured using a BCA assay (Pierce) and the molecular weight was determined via the SPR signal measured at saturating conditions (Rₘₐₓ). See Table 4 for the MW determined via SPR. Each probe was measured twice on sensor surfaces with three different densities of covalently immobilized recombinant human VEGF₁₆₅. The KD of rhVEGF-R1 is in the double-digit nanomolar range. The unmodified DARPin has a single-digit picomolar affinity to human VEGF₁₆₅, as reported by Stahl et al. (Angiogenesis 16, 101-111 (2013)).

T1 sequence (P17948 27-756 limits assumed): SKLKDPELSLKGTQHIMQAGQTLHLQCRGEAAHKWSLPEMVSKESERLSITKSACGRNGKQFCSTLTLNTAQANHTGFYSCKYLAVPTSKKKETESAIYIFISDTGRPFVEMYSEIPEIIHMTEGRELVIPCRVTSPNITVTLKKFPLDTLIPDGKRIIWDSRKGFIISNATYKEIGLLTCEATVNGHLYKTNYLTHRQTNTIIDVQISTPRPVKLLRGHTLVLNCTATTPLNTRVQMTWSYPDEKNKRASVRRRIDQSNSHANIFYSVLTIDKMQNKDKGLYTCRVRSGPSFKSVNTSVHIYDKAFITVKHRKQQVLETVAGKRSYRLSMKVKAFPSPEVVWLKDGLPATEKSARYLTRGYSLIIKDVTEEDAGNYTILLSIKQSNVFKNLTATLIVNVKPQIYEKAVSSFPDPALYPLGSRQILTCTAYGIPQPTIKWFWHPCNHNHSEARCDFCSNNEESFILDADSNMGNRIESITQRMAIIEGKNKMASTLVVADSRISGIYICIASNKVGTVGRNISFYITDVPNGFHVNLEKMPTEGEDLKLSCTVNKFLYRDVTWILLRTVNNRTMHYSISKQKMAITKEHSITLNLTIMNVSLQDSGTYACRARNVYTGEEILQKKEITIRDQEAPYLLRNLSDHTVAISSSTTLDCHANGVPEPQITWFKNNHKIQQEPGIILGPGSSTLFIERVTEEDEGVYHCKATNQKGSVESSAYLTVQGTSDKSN

B1: recombinant human VEGF165 (ligand, UniProt P15692-4 27-191, looked up)
chain: APMAEGGGQNHHEVVKFMDVYQRSYCHPIETLVDIFQEYPDEIEYIFKPSCVPLMRCGGCCNDEGLECVPTEESNITMQIMRIKPHQGQHIGEMSFLQHNKCECRPKKDRARQENPCGPCSERRKHLFVQDPQTCKCSCKNTDSRCKARQLELNERTCRCDKPRR
notes: Bought (Acro Biosystems); covalently immobilized on a Biacore sensor chip C1 surface at three densities; also called VEGF-A
A Kd of 0.069 nM, a koff of 8.1e-05 s⁻¹ and a kon of 1.1e+06 M⁻¹ s⁻¹ were found for B1 in this work.
